{"source": "paper PMC2873993", "about": "“Comparative Therapeutic Effects of Velaglucerase Alfa and Imiglucerase in a Gaucher Disease Mouse Model” (PLoS ONE, 2010)", "key": {"[1]": {"experiment": "GCase activity assay with NBD-GC substrate", "format": "biochemical", "details": "mean ± SE, n = 10", "experimental": "Vela and Imig were compared for kinetic properties as described. Briefly, the standard GCase activity assay contained final concentrations of 50 mM citrate/phosphate, pH 5.5, 0.25% TC, 0.25% TX, and 4 mM 4MU-Glc in 200 µl. The reactions were stopped after incubation (30–60 min, 37°C) using 0.9 M ethylenediamine, pH 11.0 (100 µl). Standard curves for 4-MU fluorescence yield were generated for each assay with Ex/Em 460/515 nm (Molecular Dynamics SpectraMax GeminXS spectrofluorometer). […] For the reversible competitive inhibitors, Ki was calculated from IC50 = Ki (1+ [I]/[Km]). The IC50 or Ki values for various inhibitors (dNM and its derivatives, CBE, CS, IFG, DNPFG) were determined using 4MU-Glc as substrate. Activities with the NBD-GC substrate were as described. Enzyme assays with saposin C (0–500 nM/0.5 µM BPS) and BPS (0–2 µM) were as described, [40]. Saposin C was expressed in E. coli and purified as described. […] Protease susceptibilities of the two GCases were evaluated by cathepsin D (1–2 µM) digestion in 25 mM sodium acetate, pH 4.8, 50 mM NaCl, 1.25 mM EDTA, 1.25 mM DTT using 200 ng of Vela or Imig at 37°C for 4 h. […] The amounts of intact enzyme were determined from density measurements on immunoblots and were compared to the initial amounts. […]"}, "[2]": {"experiment": "Quantification of functional active sites with single turnover substrate DNPFG", "format": "biochemical", "details": "mole ratio of 2,4-DNP released and enzyme protein; mean ± SE, n = 8", "experimental": "Catalytic activities of Vela and Imig were analyzed with 4MU-Glc and GC substrates. Vela had ∼6–10% reproducibly greater activity compared to Imig (Table 1). The functional active sites of these two enzymes were quantified using the single turnover substrate DNPFG, and consistent with the hydrolytic activity, ∼5–7% more functional active sites were quantified with Vela than with Imig (Table 1).\nVela and Imig were compared for kinetic properties as described. Briefly, the standard GCase activity assay contained final concentrations of 50 mM citrate/phosphate, pH 5.5, 0.25% TC, 0.25% TX, and 4 mM 4MU-Glc in 200 µl. The reactions were stopped after incubation (30–60 min, 37°C) using 0.9 M ethylenediamine, pH 11.0 (100 µl). Standard curves for 4-MU fluorescence yield were generated for each assay with Ex/Em 460/515 nm (Molecular Dynamics SpectraMax GeminXS spectrofluorometer). […] For the reversible competitive inhibitors, Ki was calculated from IC50 = Ki (1+ [I]/[Km]). The IC50 or Ki values for various inhibitors (dNM and its derivatives, CBE, CS, IFG, DNPFG) were determined using 4MU-Glc as substrate. Activities with the NBD-GC substrate were as described. Enzyme assays with saposin C (0–500 nM/0.5 µM BPS) and BPS (0–2 µM) were as described, [40]. Saposin C was expressed in E. coli and purified as described. For thermostability assessments, equal amounts of Vela and Imig activities were added to 50 mM citrate/phosphate, pH 7.4, with or without human/mouse serum, and incubated for 0–240 min at 25 or 37°C. The pH optimum profiles were developed using 50 mM citrate/phosphate, pH 4.4–7.2. Protease susceptibilities of the two GCases were evaluated by cathepsin D (1–2 µM) digestion in 25 mM sodium acetate, pH 4.8, 50 mM NaCl, 1.25 mM EDTA, 1.25 mM DTT using 200 ng of Vela or Imig at 37°C for 4 h. All assays were conducted in triplicate and repeated at least twice. The amounts of intact enzyme were determined from density measurements on immunoblots and were compared to the initial amounts. […]"}, "[3]": {"experiment": "Activation of GCase by BPS in detergent-free system", "format": "biochemical", "experimental": "Activation of Vela and Imig by the negatively charged lipid, BPS, and saposin C was determined in a detergent-free system with varying concentrations of either agent. The activities of both enzymes increased by 5- to 6-fold or 15- to 17-fold with saposin C (0 to 500 nM) or BPS (0 to 2 µM), respectively. […] Similarly, in the absence of saposin C, both enzymes reacted maximal activation with 0.5 µM of BPS. No significant differences were found in these responses (p = 0.5875–0.8473).\nVela and Imig were compared for kinetic properties as described. Briefly, the standard GCase activity assay contained final concentrations of 50 mM citrate/phosphate, pH 5.5, 0.25% TC, 0.25% TX, and 4 mM 4MU-Glc in 200 µl. The reactions were stopped after incubation (30–60 min, 37°C) using 0.9 M ethylenediamine, pH 11.0 (100 µl). Standard curves for 4-MU fluorescence yield were generated for each assay with Ex/Em 460/515 nm (Molecular Dynamics SpectraMax GeminXS spectrofluorometer). […] For the reversible competitive inhibitors, Ki was calculated from IC50 = Ki (1+ [I]/[Km]). The IC50 or Ki values for various inhibitors (dNM and its derivatives, CBE, CS, IFG, DNPFG) were determined using 4MU-Glc as substrate. Activities with the NBD-GC substrate were as described. Enzyme assays with saposin C (0–500 nM/0.5 µM BPS) and BPS (0–2 µM) were as described, [40]. Saposin C was expressed in E. coli and purified as described. For thermostability assessments, equal amounts of Vela and Imig activities were added to 50 mM citrate/phosphate, pH 7.4, with or without human/mouse serum, and incubated for 0–240 min at 25 or 37°C. The pH optimum profiles were developed using 50 mM citrate/phosphate, pH 4.4–7.2. Protease susceptibilities of the two GCases were evaluated by cathepsin D (1–2 µM) digestion in 25 mM sodium acetate, pH 4.8, 50 mM NaCl, 1.25 mM EDTA, 1.25 mM DTT using 200 ng of Vela or Imig at 37°C for 4 h. All assays were conducted in triplicate and repeated at least twice. The amounts of intact enzyme were determined from density measurements on immunoblots and were compared to the initial amounts. The ratios of intact enzyme with and without cathepsin D were used as indicators of the enzyme's proteolytic susceptibility."}, "[4]": {"system": "9 V/null mice", "experiment": "GC levels in liver, spleen and lung after weekly enzyme injections", "format": "in vivo, mouse", "details": "for reduction of GC levels in spleen: all three dosing groups", "from_the_text": "(§1) Mice were sacrificed one week after the last injection, and sera and organs were collected for serologic studies, GCase activities, GC levels, and quantification of storage cells. At one week after the last injection, the GCase activities in liver, spleen, and lung had returned to background levels (not shown).\n(§2) Mice were anesthetized with isoflurane.\nGC levels in liver, lung, and spleen from 9 V/null and WT mice were quantified by LC/MS-MS (Lipidomic Core, University of South Carolina). The GC levels were normalized to protein in the same lysates used for GCase activity and expressed as the percentage change relative to the GC levels of matched samples from saline-injected mice. WT lysates were used as a reference. The Student's t-test was used for statistical comparisons."}, "[5]": {"system": "9 V/null mice", "experiment": "Storage cell quantification in liver and lung", "format": "in vivo, mouse", "details": "any dose", "from_the_text": "as §1, §2\nDuplicate tissue sections were fixed in 10% formalin for hematoxylin and eosin (H&E) staining and in 4% paraformaldehyde-PBS, pH 7.4 for immunohistochemistry with CD68 antibody and examined using a Zeiss microscope equipped with SPOT Advance software (SPOT Diagnostic Instruments, Inc.). […] Mice (n = 6–14) in the Vela-, Imig-, or saline-treated groups were used, and the resultant data were analyzed using the Student's t-test."}, "[6]": {"system": "9 V/null mice", "details": "mouse, in vivo"}, "[7]": {"details": "dose dependent, 5, 15 or 60 U/kg/wk, abstract"}}}
{"molecule": "imiglucerase (protein, short N-linked oligosaccharide chains with ~3 exposed α-mannosyl residues) ARPCIPKSFGYSSVVCVCNATYCDSFDPPTFPALGTFSRYESTRSGRRMELSMGPIQANHTGTGLLLTLQPEQKFQKVKGFGGAMTDAAALNILALSPPAQNLLLKSYFSEEGIGYNIIRVPMASCDFSIRTYTYADTPDDFQLHNFSLPEEDTKLKIPLIHRALQLAQRPVSLLASPWTSPTWLKTNGAVNGKGSLKGQPGDIYHQTWARYFVKFLDAYAEHKLQFWAVTAENEPSAGLLSGYPFQCLGFTPEHQRDFIARDLGPTLANSTHHNVRLLMLDDQRLLLPHWAKVVLTDPEAAKYVHGIAVHWYLDFLAPAKATLGETHRLFPNTMLFASEACVGSKFWEQSVRLGSWDRGMQYSHSIITNLLYHVVGWTDWNLALNPEGGPNWVRNFVDSPIIVDITKDTFYKQPMFYHLGHFSKFIPEGSQRVGLVASQKNDLDAVALMHPDGSAVVVVLNRSSKDVPLTIKDPAVGFLETISPGYSIHTYLWHRQ", "values": [{"measurement": "GCase activity, NBD-GC", "setting": "[1]", "value": "1,191,610±56,390 nmole/h/mg"}, {"measurement": "Active sites, 2,4-DNPFG", "setting": "[2]", "value": "91.6±2.2", "unit": "%"}, {"measurement": "increase of activity with BPS", "setting": "[3]; BPS 0 to 2 µM, detergent-free", "value": "15- to 17 fold"}, {"measurement": "BPS concentration of maximal activation", "setting": "[3]; in the absence of saposin C", "value": 0.5, "unit": "µM"}, {"measurement": "GC lipid levels in lung", "setting": "[4]; 5 and 15 U/kg/wk", "value": "unchanged"}, {"measurement": "decrease of GC levels in liver", "setting": "[4]; 5 or 15 U/kg/wk, week 4 or 8, compared to saline-injected controls", "value": "50–70%"}, {"measurement": "reduction of GC levels in liver", "setting": "[4]; 15 U/kg/wk (before 8 wks)", "value": "~55", "unit": "%"}, {"measurement": "decrease of GC in lung (suggested trend)", "setting": "[4]; 60 U/kg/wk, 8 wks, variable", "value": "~10", "unit": "%"}, {"measurement": "decrease of GC levels in liver", "setting": "[4]; 60 U/kg/wk, week 4", "value": "~70", "unit": "%"}, {"measurement": "reduction of GC levels in spleen", "setting": "[4]; 4 wks", "value": "10–15%"}, {"measurement": "reduction of GC levels in spleen", "setting": "[4]; 8 wks", "value": "20–30%"}, {"measurement": "reduction of GC levels and storage cell numbers in livers", "setting": "[4]; [7]", "value": "60–95%"}, {"measurement": "reduction of GC levels and storage cell numbers in spleens", "setting": "[4]; [7]", "value": "10–30%"}, {"measurement": "numbers of storage cells in lungs (CD68)", "setting": "[5]", "value": "not different from saline control"}, {"measurement": "injected mice with increased serum anti-GCase IgG", "setting": "[6]", "value": "> 50", "unit": "%"}]}
